Reference: US20260274948A1 (AUTOLUS, published 2026)

B1: Jovi Hum 8 (antibody, V domains shown)
VH: QVQLVQSGAEVKKPGASVKVSCKASGYTFTGYVMHWVRQAPGQGLEWMGFINPYNDDIQSNERFRGRVTMTRDTSISTAYMELSRLRSDDTAVYYCARGAGYNFDGAYRFFDFWGQGTMVTVSS
VL: DIVMTQSPLSLPVTPGEPASISCRSSQRLVHSNGNTYLHWYLQKPGQSPRLLIYRVSNRFPGVPDRFSGSGSGTDFTLKISRVEAEDVGVYYCSQSTHVPYTFGQGTKLEIK
notes: H-AF 1 carries no back-mutation (Q3, V20, M48, R71, T73), i.e. the plain H-AF062256 graft; also called H-AF 1; H-AF1, 3aaz
B2: Jovi Hum 26 (antibody, V domains shown)
VH: QVQLVQSGAEVKKPGASVKMSCKASGYTFTGYVMHWVRQAPGQGLEWMGFINPYNDDIQSNERFRGRVTMTSDKSISTAYMELSRLRSDDTAVYYCARGAGYNFDGAYRFFDFWGQGTMVTVSS
VL: DIVMTQSPLSLPVTPGEPASISCRSSQRLVHSNGNTYLHWYLQKPGQSPRLLIYRVSNRFPGVPDRFSGSGSGTDFTLKISRVEAEDVGVYYCSQSTHVPYTFGQGTKLEIK
notes: also called H-AF 12
B3: Jovi Hum 18 (antibody, V domains shown)
VH: QVQLVQSGAEVKKPGASVKVSCKASGYTFTGYVMHWVRQAPGQGLEWMGFINPYNDDIQSNERFRGRVTMTSDKSISTAYMELSRLRSDDTAVYYCARGAGYNFDGAYRFFDFWGQGTMVTVSS
VL: DIVMTQSPLSLPVTPGEPASISCRSSQRLVHSNGNTYLHWYLQKPGQSPRLLIYRVSNRFPGVPDRFSGSGSGTDFTLKISRVEAEDVGVYYCSQSTHVPYTFGQGTKLEIK
notes: also called H-AF 4
B4: Jovi Hum 19 (antibody, V domains shown)
VH: QVQLVQSGAEVKKPGASVKVSCKASGYTFTGYVMHWVRQAPGQGLEWIGFINPYNDDIQSNERFRGRVTMTRDTSISTAYMELSRLRSDDTAVYYCARGAGYNFDGAYRFFDFWGQGTMVTVSS
VL: DIVMTQSPLSLPVTPGEPASISCRSSQRLVHSNGNTYLHWYLQKPGQSPRLLIYRVSNRFPGVPDRFSGSGSGTDFTLKISRVEAEDVGVYYCSQSTHVPYTFGQGTKLEIK
notes: also called H-AF 5
B5: Jovi Hum 16 (antibody, V domains shown)
VH: QVQLVQSGAEVKKPGASVKVSCKASGYTFTGYVMHWVRQAPGQGLEWMGFINPYNDDIQSNERFRGRVTMTRDKSISTAYMELSRLRSDDTAVYYCARGAGYNFDGAYRFFDFWGQGTMVTVSS
VL: DIVMTQSPLSLPVTPGEPASISCRSSQRLVHSNGNTYLHWYLQKPGQSPRLLIYRVSNRFPGVPDRFSGSGSGTDFTLKISRVEAEDVGVYYCSQSTHVPYTFGQGTKLEIK
notes: also called H-AF 2
B6: Jovi Hum 27 (antibody, V domains shown)
VH: QVQLVQSGAEVKKPGASVKMSCKASGYTFTGYVMHWVRQAPGQGLEWIGFINPYNDDIQSNERFRGRVTMTRDTSISTAYMELSRLRSDDTAVYYCARGAGYNFDGAYRFFDFWGQGTMVTVSS
VL: DIVMTQSPLSLPVTPGEPASISCRSSQRLVHSNGNTYLHWYLQKPGQSPRLLIYRVSNRFPGVPDRFSGSGSGTDFTLKISRVEAEDVGVYYCSQSTHVPYTFGQGTKLEIK
notes: also called H-AF 13
B7: Jovi Hum 20 (antibody, V domains shown)
VH: QVQLVQSGAEVKKPGASVKVSCKASGYTFTGYVMHWVRQAPGQGLEWIGFINPYNDDIQSNERFRGRVTMTRDKSISTAYMELSRLRSDDTAVYYCARGAGYNFDGAYRFFDFWGQGTMVTVSS
VL: DIVMTQSPLSLPVTPGEPASISCRSSQRLVHSNGNTYLHWYLQKPGQSPRLLIYRVSNRFPGVPDRFSGSGSGTDFTLKISRVEAEDVGVYYCSQSTHVPYTFGQGTKLEIK
notes: also called H-AF 6
B8: Jovi Hum 17 (antibody, V domains shown)
VH: QVQLVQSGAEVKKPGASVKVSCKASGYTFTGYVMHWVRQAPGQGLEWMGFINPYNDDIQSNERFRGRVTMTSDTSISTAYMELSRLRSDDTAVYYCARGAGYNFDGAYRFFDFWGQGTMVTVSS
VL: DIVMTQSPLSLPVTPGEPASISCRSSQRLVHSNGNTYLHWYLQKPGQSPRLLIYRVSNRFPGVPDRFSGSGSGTDFTLKISRVEAEDVGVYYCSQSTHVPYTFGQGTKLEIK
notes: also called H-AF 3

biological target: T1, TRBC2 (T-cell receptor beta constant region 2) (human, UniProt A0A5B9 1-129, limits assumed); test: ELISA
T1 construct: also called TCR beta-constant region 2
T1 sequence (A0A5B9 1-129 limits assumed): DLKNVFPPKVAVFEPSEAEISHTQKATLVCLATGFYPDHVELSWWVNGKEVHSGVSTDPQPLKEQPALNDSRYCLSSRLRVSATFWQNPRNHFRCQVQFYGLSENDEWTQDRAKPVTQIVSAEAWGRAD

Binding result, no binding:
B1
B2
B3
B4
B5
B6
B7
B8
